Assay [1] addresses T1, E. coli RecR tetramer (E. coli, UniProt P0A7H6 1-201).
T1 construct: RecR, E. coli; tetramer 87.8 kDa; Same preparation as m2; the tetrameric state, which is the one found in complexes with RecO; also called RecR4; R4; source: E. coli BL21 Rosetta 2(DE3)pLysS, purified (Ni-NTA)
T1 sequence (looked up): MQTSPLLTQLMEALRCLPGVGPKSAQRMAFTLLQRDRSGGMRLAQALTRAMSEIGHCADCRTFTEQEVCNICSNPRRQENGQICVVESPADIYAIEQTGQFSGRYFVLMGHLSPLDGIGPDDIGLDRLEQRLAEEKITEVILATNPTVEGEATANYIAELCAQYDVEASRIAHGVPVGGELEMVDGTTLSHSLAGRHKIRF
Kind of assay: AUC; sedimentation velocity, RecO (1.5 μM) titrated with RecR (1.5-9 μM monomer; 1:1 to 1:6), no P15, buffer BTP (pH 8.0), 25°C; K3 and K4 from SedAnal simulations (Scheme 1) that best describe the c(s) profiles.

Assay [2] concerns the target T1, E. coli RecR tetramer. The assay is described as follows: AUC; sedimentation equilibrium, RecO 1.5 μM + RecR 6 μM monomer (1:4), no P15, buffer BTP (pH 8), 25°C, 18 000, 23 000, 28 000 rpm; two-species model, free RecR dimer fixed.
The target of assay [3] is T1, E. coli RecR tetramer. The assay is described as follows: AUC; sedimentation equilibrium, RecO 1.5 μM + RecR 1.5 μM monomer (1:1), no P15, buffer BTP (pH 8), 25°C, 18 000, 23 000, 28 000 rpm; two-species model, free RecO fixed.
The target of assay [4] is Escherichia coli RecR protein (E. coli) (UniProt P0A7H6). Kind of assay: AUC; sedimentation equilibrium of RecR alone, buffer BTP pH 8.0, 50 mM NaCl + 10 mM MgCl2, 25°C; dimers to tetramer.
Assay [5] has the same target. The assay is described as follows: AUC; sedimentation equilibrium of RecR alone, buffer BTP pH 8.0 with 200 mM NaCl, 25°C; dimers to tetramer.
The target is the same in assay [6]. Kind of assay: AUC; sedimentation velocity of RecR alone, eight concentrations 2-20 μM (monomer), buffer BTP (pH 8.0), 25°C, 233 nm.
Assay [7] shares this target. The assay is described as follows: AUC; sedimentation equilibrium of RecR alone, 4, 8 and 12 μM (monomer), buffer BTP pH 9.0, 50 mM NaCl, 25°C; dimers to tetramer, Lobs = [R4]/[R2]^2.
Assay [8] has the same target. Kind of assay: AUC; sedimentation equilibrium of RecR alone, 4, 8 and 12 μM (monomer), buffer BTP pH 7.0, 50 mM NaCl, 25°C; dimers to tetramer, Lobs = [R4]/[R2]^2.
The target is the same in assay [9]. Kind of assay: AUC; sedimentation equilibrium of RecR alone, buffer BTP, 37°C; dimers to tetramer.
Assay [10] has the same target. The assay is described as follows: AUC; sedimentation equilibrium of RecR alone, 4, 8 and 12 μM (monomer), buffer BTP pH 7.5, 50 mM NaCl, 25°C; dimers to tetramer, Lobs = [R4]/[R2]^2.
For assay [11] the target is unchanged. The assay is described as follows: AUC; sedimentation equilibrium of RecR alone, 4, 8 and 12 μM (monomer), buffer BTP pH 8.5, 50 mM NaCl, 25°C; dimers to tetramer, Lobs = [R4]/[R2]^2.
For assay [12] the target is unchanged. Kind of assay: AUC; sedimentation equilibrium of RecR alone, 4, 8 and 12 μM (monomer), buffer BTP pH 8.0, 50 mM NaCl, 25°C; dimers to tetramer, Lobs = [R4]/[R2]^2; at 8 μM also a two-species model with the second mass floated.
Assay [13] shares this target. Kind of assay: AUC; sedimentation equilibrium of RecR alone, 4, 8 and 12 μM (monomer), buffer BTP pH 6.4, 50 mM NaCl, 25°C; dimers to tetramer, Lobs = [R4]/[R2]^2.
Assay [14] has as its target T1, E. coli RecR tetramer. The assay is described as follows: AUC; sedimentation equilibrium, RecO 1.5 μM + RecR 1.5 μM (1:1) with P15 (9 μM), buffer BTP (pH 8), 25°C, 19 000, 24 000, 29 000 rpm; two-species model. Conditions: both partners purified.
The target in assay [15] is T1, E. coli RecR tetramer. The assay is described as follows: AUC; sedimentation equilibrium, RecO 1.5 μM + RecR 6 μM (1:4) with P15 (9 μM), buffer BTP (pH 8), 25°C, 19 000, 24 000, 29 000 rpm; one-species model. The settings on record: both partners purified.
Assay [16] addresses T1, E. coli RecR tetramer. The assay is described as follows: AUC; sedimentation equilibrium, RecR 2 μM monomer, RecO 6 μM (3:1), P15 36 μM, buffer BTP (pH 8.0), 25°C, 19 000, 24 000, 29 000 rpm; two-species model, RecO-P15 fixed at 29.1 kDa. Conditions: both partners purified.
Assay [17] concerns the target T2, RecOR complex (pre-mixed RecO and RecR, 1:4 molar ratio) (E. coli, UniProt P0A7H3 1-242; P0A7H6 1-201).
T2 construct: RecO, E. coli; as m1; RecR, E. coli; as m2; also called pre-mixed solution of RecO (2 μM) and RecR (8 μM monomer); source: purified RecO and purified RecR (both from E. coli), pre-mixed; copies: + 4
T2 sequence (looked up) 1: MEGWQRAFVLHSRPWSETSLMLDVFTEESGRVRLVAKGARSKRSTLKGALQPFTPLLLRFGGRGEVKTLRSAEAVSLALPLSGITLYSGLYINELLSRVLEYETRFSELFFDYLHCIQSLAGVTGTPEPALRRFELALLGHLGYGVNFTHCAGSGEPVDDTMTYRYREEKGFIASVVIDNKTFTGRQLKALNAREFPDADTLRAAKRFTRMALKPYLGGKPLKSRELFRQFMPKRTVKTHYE
T2 sequence (looked up) 2: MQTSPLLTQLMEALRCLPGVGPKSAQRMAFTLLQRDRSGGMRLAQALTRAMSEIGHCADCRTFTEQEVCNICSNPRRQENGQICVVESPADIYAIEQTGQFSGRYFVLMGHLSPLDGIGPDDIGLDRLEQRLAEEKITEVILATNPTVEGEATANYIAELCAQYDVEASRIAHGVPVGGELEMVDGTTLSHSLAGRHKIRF
The assay is described as follows: ITC; P15 (50 μM) titrated into a pre-mixed solution of RecO (2 μM) and RecR (8 μM monomer), buffer BTP, pH 8.0, 25°C. The settings on record: both partners purified.

Assay [18] deals with T3, Escherichia coli RecO protein (E. coli, UniProt P0A7H3 1-242).
T3 chain: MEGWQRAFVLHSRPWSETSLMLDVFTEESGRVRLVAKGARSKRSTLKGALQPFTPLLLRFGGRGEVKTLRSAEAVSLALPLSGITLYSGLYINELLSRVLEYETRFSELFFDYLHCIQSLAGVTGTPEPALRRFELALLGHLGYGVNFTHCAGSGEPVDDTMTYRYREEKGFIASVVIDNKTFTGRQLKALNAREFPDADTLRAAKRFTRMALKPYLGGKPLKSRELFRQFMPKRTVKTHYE
Kind of assay: ITC; pH 8, 25°C.

Where “and” joins values, the source holds several entries; their conditions need not be identical. Equal entries are not always repeated. Bounds are passed on as bounds.

As for “Escherichia coli RecO protein (from UniProt P0A7H3 1-242) (natural protein)”, in the assay with E. coli RecR tetramer [1], the K3 (association constant, first RecO to RecR4) is 500000 M⁻¹ and the K4 (association constant, second RecO to RecR4O) was 4e+08 M⁻¹. Further, in the assay with E. coli RecR tetramer [2], the stoichiometry N (RecO per RecR tetramer) worked out at 2. Also, the stoichiometry N (RecO per RecR tetramer) with E. coli RecR tetramer [3] was found to be 2.
As usually defined, the stoichiometry N is the number of molecules, sites or subunits per partner or assembly. Turning to “Escherichia coli RecR protein (from UniProt P0A7H6 1-201) (natural protein)”, the Ka was 72000 M⁻¹ in assay [4]; 34900 M⁻¹ in assay [5]; under 500 M⁻¹ in [7]; 1.65e+06 M⁻¹ in assay [8]; 149000 M⁻¹ in assay [9]; 568000 M⁻¹ in [10]. Moreover, the values for the Ka in assay [11], in [12] and in [13] were 4320 M⁻¹, 216000 M⁻¹ and 267000 M⁻¹, respectively. For the same molecule, the stoichiometry N in [6] was 2 and 4; in assay [12], 4.

B1: RecO–P15 complex (complex, E. coli)
chain: MEGWQRAFVLHSRPWSETSLMLDVFTEESGRVRLVAKGARSKRSTLKGALQPFTPLLLRFGGRGEVKTLRSAEAVSLALPLSGITLYSGLYINELLSRVLEYETRFSELFFDYLHCIQSLAGVTGTPEPALRRFELALLGHLGYGVNFTHCAGSGEPVDDTMTYRYREEKGFIASVVIDNKTFTGRQLKALNAREFPDADTLRAAKRFTRMALKPYLGGKPLKSRELFRQFMPKRTVKTHYE
peptide: PSNEPPMDFDDDIPF
notes: RecO, E. coli; as m1; the 15 C-terminal amino acids of E. coli SSB; as m3; 29.1 kDa; also called RecO in the presence of a 6-fold molar excess of P15; source: RecO from E. coli BL21(DE3)pLysS, purified; P15 bought: WatsonBio; mixed with a six-fold molar excess of P15 over RecO; copies: 1 + 1
For B1, the results for the “stoichiometry N” value with E. coli RecR tetramer [14], in the assay with E. coli RecR tetramer [15] and in the assay with E. coli RecR tetramer [16] were 2 RecO per RecR tetramer, 1 RecO per RecR tetramer and 2 RecO-P15 per RecR tetramer, respectively.

B2: P15 peptide (the 15 C-terminal amino acids of E. coli SSB) (peptide)
peptide: PSNEPPMDFDDDIPF
notes: the 15 C-terminal amino acids of E. coli SSB; also called SSB-Ct peptide; SSB C-terminal acidic tip peptide; source: bought: WatsonBio
With B2, in assay [17], the dH was under 1 kcal/mol. The molecule also returned a Ka in assay [18] of 1.2e+07 M⁻¹.

The record behind these values is paper PMC7913777, “Allosteric effects of SSB C-terminal tail on assembly of E. coli RecOR proteins” (Nucleic Acids Research, 2021).
